Measurements from the supplement of paper PMC9170038.

Tested on: MS2 coat protein
Assay: apparent KD of MS2 coat protein; designed switch direction (-1 OFF switch, 1 ON switch): -1; higher = weaker reporter binding
How it was run: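 Designed RNA switches sharing common flanks were transcribed on Illumina chips by stalled E. coli RNA polymerase. They were titrated with SNAP-549-labelled MS2 coat protein, from 0.7 or 1.5 nM doubling to 3 µM, in Tris-HCl pH 7.5 buffer with KCl, MgCl2, BSA, DTT, tRNA and Tween-20. Titrations ran without input, with 200 uM small-molecule ligand, or with an oligonucleotide input. The apparent KD of each design is the median over its clusters, after curve-fitting of normalised cluster fluorescence.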

[1] = Eterna round: R95, input ligand: FMN 200 uM
[2] = Eterna round: R95, input ligand: microRNA oligo, concentration not stated
[3] = Eterna round: R95, input ligand: none
[4] = input ligand: microRNA oligo, concentration not stated

“GAUUUAGAGCAGGAUAUCAUAGAAAUGUAUGAAUGAGAAGGGCUCACAUGAGGAUCACCCAUGUGGUCCUAGAU [JL Dibiri mod 20] (puzzle: Exclusion 6)” was tested, and the “apparent KD of MS2 coat protein” value [1] was 144 nM, the “apparent KD of MS2 coat protein” value [2] was 23.5 nM and the “apparent KD of MS2 coat protein” value [3] was 20.3 nM.

For “UAAAAUAGUGUGAGGAUAUGCUGGUCCUUGGAUCAGCAGAAGGCACAUGAGGAUCACCCAUGUAAAUAAUAAUA [Mat - Exclusion 4 - JL Mod - D27] (puzzle: Brourd's mod of Exclusion 4)”, the “apparent KD of MS2 coat protein” value [1] was 184 nM, the “apparent KD of MS2 coat protein” value [2] was 54.6 nM and the “apparent KD of MS2 coat protein” value [3] was 67.1 nM.

With “GAUAUGGGAGUUAGGAUAUGUCGCCCGAACGGGUAAUAGAAGGGACUUGAGGAUCACCCAAGUCAUAAAGAAUA [Rainan] (Eterna round: R97, puzzle: Brourd's mod of Exclusion 4)” the “apparent KD of MS2 coat protein” value (input ligand: FMN 200 uM) was 11.6 nM and the “apparent KD of MS2 coat protein” value (input ligand: none) was 14.6 nM.

For “UUAUAUAAUGUGAGGAUAUGCUGGUCCUUAGAUCAGCAGAAGGCACAUGAGGAUCACCCAUGUAGUAAAUUUUA [Mat - Exclusion 4 - JL Mod - D11] (puzzle: Brourd's mod of Exclusion 4)”, the “apparent KD of MS2 coat protein” value [1] was 25 nM, the “apparent KD of MS2 coat protein” value [2] was 15.3 nM and the “apparent KD of MS2 coat protein” value [3] was 16.8 nM.

For “GUUCUGACAGGAUAUACAUGAGGAUCACCCAUGUGCCCUUGGAGAUGCAAAGCAUCUCGUAGAAGGGUCUGAAC [Omei Ex3 Model Bachelor's Dilema v29] (Eterna round: R97, puzzle: Exclusion 3)”, the “apparent KD of MS2 coat protein” value (input ligand: FMN 200 uM) was 34 nM and the “apparent KD of MS2 coat protein” value (input ligand: none) was 37.2 nM.

In the case of “AUAAUGUAAGGAUAUCAGUCGACUAGCGAUAGCUAGUCGACUGAGAAGGUACAUGAGGAUCACCCAUGUGAUUA [E4/10-A4] (Eterna round: R97, puzzle: Exclusion 4)”, the “apparent KD of MS2 coat protein” value (input ligand: FMN 200 uM) was 421 nM and the “apparent KD of MS2 coat protein” value (input ligand: none) was 167 nM.

With “GCGCACCUACCAAAAGGUAGGUCCACAUGAGGAUCACCCAUGUAGGAUAUCGAUUGCUUUGCAGUCGAGAAGGACGUGAUGCGC [JL ENG3 3.80 Mod 16] (Eterna round: R96, puzzle: Exclusion NG 3)” the “apparent KD of MS2 coat protein” value (input ligand: FMN 200 uM) was 51.6 nM, the “apparent KD of MS2 coat protein” value [4] was 27.3 nM and the “apparent KD of MS2 coat protein” value (input ligand: none) was 32.3 nM.

“GAUUAUGCGAGCUUUAGGGACAUGAGGAUCACCCAUGUUCGUCUUAUUGGUCUGGAUGCACUGACAUACCUAAAUCU [JMF 82] (puzzle: Sensor v3, turn-off variant 1)” was tested, and the “apparent KD of MS2 coat protein” value [1] was 17.1 nM, the “apparent KD of MS2 coat protein” value [2] was 25.5 nM and the “apparent KD of MS2 coat protein” value [3] was 21.5 nM.

With “GGAGUCUUAGGAUAUACAGGUGUGAACAUCCGACGUUUCCAACAUGAGGAUCACCCAUGUAGAAGGAAGACGAG [Eternabot (Original) Solution 5] (Eterna round: R97, puzzle: Exclusion 2)” the “apparent KD of MS2 coat protein” value (input ligand: FMN 200 uM) was 824 nM and the “apparent KD of MS2 coat protein” value (input ligand: none) was 783 nM.

With “CGAGGUAGAGGAUAUACGUGGAUGUAAAUUCAUGAUAUUCUACAUGAGGAUCACCCAUGUAGAAGGCUAUAGCG [JR_Ex2_Sub077] (Eterna round: R97, puzzle: Exclusion 2)” the “apparent KD of MS2 coat protein” value (input ligand: FMN 200 uM) was 26.9 nM and the “apparent KD of MS2 coat protein” value (input ligand: none) was 18 nM.

In the case of “GCCUUAUCCGUCAGGAUAUACAGCCGCUCCCUGUUGUAGAAGGGACAUGAGGAUCACCCAUGUACGUACCAUUG [alecazam6] (Eterna round: R97, puzzle: Brourd's mod of Exclusion 4)”, the “apparent KD of MS2 coat protein” value (input ligand: FMN 200 uM) was 31.8 nM and the “apparent KD of MS2 coat protein” value (input ligand: none) was 39.1 nM.

With “AGCUAGUCAGGAUAUUCUAAUAAUUACAUGAGGAUCACCCAUGUGAAUGGACAAGGGUGUGAAGAAGGGACUAGCG [Omei Ex5 A9] (Eterna round: R97, puzzle: Exclusion 5)” the “apparent KD of MS2 coat protein” value (input ligand: FMN 200 uM) was 429 nM and the “apparent KD of MS2 coat protein” value (input ligand: none) was 1230 nM.

For “AGAUCCUGAGUCAGGAUAUAGAGGCGGUAGCCUGGCUAGAAGGGACAUGAGGAUCACCCAUGUGGGUUCGAGCC [Isonus] (puzzle: Brourd's mod of Exclusion 4)”, the “apparent KD of MS2 coat protein” value [2] was 16.7 nM.

In the case of “UUUCCUUGUGUGAGGAUAUACUUGUUUGUGUUUUUGUAGAAGGCACAUGAGGAUCACCCAUGUACUCUUUCCUG [JR_BME4_Sub023] (puzzle: Brourd's mod of Exclusion 4)”, the “apparent KD of MS2 coat protein” value [2] was 34.2 nM.

For “UGUACUAUGCGAGCUGACUUGCGUAGUGCAGCAAGUGAAACAUGAGGAUCACCCAUGUCCUCAUUUGCUCGUCUUAU [SL-sv3-2.01 JL mod] (puzzle: Sensor v3, turn-off variant 2)”, the “apparent KD of MS2 coat protein” value [1] was 23.3 nM, the “apparent KD of MS2 coat protein” value [2] was 337 nM and the “apparent KD of MS2 coat protein” value [3] was 22 nM.

In the case of “CAGUACUGAGGAUAUACAUGAGGAUCACCCAUGUGUUCCAGCUAGGAAACUAGCAAAUGUAGAAGGCAGUACUG [Ex3: 827] (Eterna round: R96, puzzle: Exclusion 3)”, the “apparent KD of MS2 coat protein” value [4] was 216 nM.

“AGCUAGAUAGGAUAUGCCCGAGAUAACAUGAGGAUCACCCAUGUGACCGAAUCUAUUCUAGCAGAAGGGUUUAGGA [Mod of ViennaUCT 17 - Jieux - Exclusion 5] (Eterna round: R97, puzzle: Exclusion 5)” was tested, and the “apparent KD of MS2 coat protein” value (input ligand: FMN 200 uM) was 16.5 nM and the “apparent KD of MS2 coat protein” value (input ligand: none) was 14 nM.

In the case of “CGCAAAAGAGGAUAUACAUGAGGAUCACCCAUGUUUUCUCUUCAUAACGGAAACUCGUGUAGAAGGCUUGUGCG [EX3 C.18] (Eterna round: R97, puzzle: Exclusion 3)”, the “apparent KD of MS2 coat protein” value (input ligand: FMN 200 uM) was 94.4 nM and the “apparent KD of MS2 coat protein” value (input ligand: none) was 103 nM.

In the case of “UUGAUUAGAAAGGAUAUCGGAUACUUGAGAGUCCGAGAAGGUUUUACAUGAGGAUCACCCAUGUGGCAUCCUCG [Eternabot (L1) Solution 99] (Eterna round: R97, puzzle: Exclusion 6)”, the “apparent KD of MS2 coat protein” value (input ligand: FMN 200 uM) was 476 nM and the “apparent KD of MS2 coat protein” value (input ligand: none) was 805 nM.
